From US20030199423A1

Legend:
[1] = target: LFA-1 (CD18/CD11a) (human) (UniProt P20701); test: inhibition of CD18-dependent adhesion of PMA-treated JY cells to coated shICAM-R, antibody 10 µg/ml; defines total CD18-dependent binding
[2] = target: LFA-1 (CD18/CD11a) (human) (UniProt P20701); test: inhibition of SKW3 cell adhesion to coated soluble ICAM-R, peptide 1-2 mg/ml
[3] = target: LFA-1 (CD18/CD11a) (human) (UniProt P20701); test: inhibition of neutrophil adhesion to coated ICAM-R/Ig, antibody 15 µg/ml

Chain of LFA-1 (CD18/CD11a) (human) (P20701 26-1170, chain 1 of 2): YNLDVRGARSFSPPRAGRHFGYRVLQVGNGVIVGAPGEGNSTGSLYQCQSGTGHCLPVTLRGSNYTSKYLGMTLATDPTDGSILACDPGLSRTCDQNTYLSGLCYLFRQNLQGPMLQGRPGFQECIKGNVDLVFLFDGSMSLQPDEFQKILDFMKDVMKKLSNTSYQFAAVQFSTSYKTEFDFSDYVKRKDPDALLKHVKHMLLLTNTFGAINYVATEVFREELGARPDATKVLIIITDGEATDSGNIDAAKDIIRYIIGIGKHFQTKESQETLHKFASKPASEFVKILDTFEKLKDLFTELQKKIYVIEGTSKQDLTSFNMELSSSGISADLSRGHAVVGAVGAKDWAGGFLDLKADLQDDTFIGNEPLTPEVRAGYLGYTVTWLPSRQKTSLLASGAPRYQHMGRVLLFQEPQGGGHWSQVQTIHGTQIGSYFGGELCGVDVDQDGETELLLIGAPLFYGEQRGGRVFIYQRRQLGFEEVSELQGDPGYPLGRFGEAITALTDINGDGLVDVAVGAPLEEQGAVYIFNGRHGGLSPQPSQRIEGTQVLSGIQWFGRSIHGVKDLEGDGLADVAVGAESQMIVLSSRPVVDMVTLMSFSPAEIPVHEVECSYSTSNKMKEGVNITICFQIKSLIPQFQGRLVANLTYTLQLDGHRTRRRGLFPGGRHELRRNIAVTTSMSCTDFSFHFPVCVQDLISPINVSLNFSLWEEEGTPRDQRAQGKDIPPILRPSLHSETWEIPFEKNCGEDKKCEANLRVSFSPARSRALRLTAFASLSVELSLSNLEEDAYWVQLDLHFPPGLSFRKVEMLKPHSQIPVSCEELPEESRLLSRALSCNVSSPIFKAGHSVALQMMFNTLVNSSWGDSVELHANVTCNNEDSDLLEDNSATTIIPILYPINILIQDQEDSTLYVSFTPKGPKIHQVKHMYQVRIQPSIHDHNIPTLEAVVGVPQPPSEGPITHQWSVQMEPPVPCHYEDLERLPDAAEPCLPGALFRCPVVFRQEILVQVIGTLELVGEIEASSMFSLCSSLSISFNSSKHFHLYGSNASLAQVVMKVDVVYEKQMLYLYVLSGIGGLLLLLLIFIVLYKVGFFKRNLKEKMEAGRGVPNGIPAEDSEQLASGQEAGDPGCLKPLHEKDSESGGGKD
Chain of LFA-1 (CD18/CD11a) (human) (P05107 23-769, chain 2 of 2, further chain): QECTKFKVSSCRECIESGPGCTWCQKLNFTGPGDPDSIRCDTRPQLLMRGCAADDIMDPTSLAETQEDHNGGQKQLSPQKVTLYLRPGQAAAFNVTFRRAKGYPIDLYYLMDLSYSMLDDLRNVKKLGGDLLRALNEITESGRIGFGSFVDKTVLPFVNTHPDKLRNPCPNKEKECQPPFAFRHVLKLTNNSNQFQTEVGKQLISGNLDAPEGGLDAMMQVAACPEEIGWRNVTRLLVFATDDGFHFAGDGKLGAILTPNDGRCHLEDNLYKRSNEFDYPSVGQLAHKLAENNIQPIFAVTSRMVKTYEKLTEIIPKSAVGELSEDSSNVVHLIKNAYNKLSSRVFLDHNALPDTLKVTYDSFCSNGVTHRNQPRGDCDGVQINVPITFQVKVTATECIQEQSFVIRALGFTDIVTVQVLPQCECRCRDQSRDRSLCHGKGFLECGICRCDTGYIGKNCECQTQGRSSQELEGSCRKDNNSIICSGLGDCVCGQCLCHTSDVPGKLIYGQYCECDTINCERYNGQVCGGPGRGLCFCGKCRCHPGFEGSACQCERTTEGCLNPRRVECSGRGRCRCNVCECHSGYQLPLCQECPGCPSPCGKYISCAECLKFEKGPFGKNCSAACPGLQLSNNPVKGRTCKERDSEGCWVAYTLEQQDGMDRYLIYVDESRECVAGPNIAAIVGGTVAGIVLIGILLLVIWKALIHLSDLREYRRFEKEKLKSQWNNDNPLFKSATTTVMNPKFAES

anti-CD18 monoclonal antibody 60.3
Inhibition (%) [1]: 100%

ICAM-R domain 1 peptide (NGSQI), residues 72-76
% Inhibition [2]: 26%

anti-CD11a monoclonal antibody TS1/22
percent inhibition of neutrophil binding to ICAM-R [3]: 50%
